According to the supplement of paper PMC9112550, “Optimization of the antimicrobial peptide Bac7 by deep mutational scanning” (BMC Biology, 2022):

system: Escherichia coli TOP10; test: shrunken log2 fold change of peptide-encoding DNA abundance (4.5 h post-induction vs induction); higher = less antimicrobial activity (less host growth inhibition); details: time post-induction: 4.5 h; library: site-saturation at positions 5, 18, 19, 20
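Also: peptides expressed intracellularly from a pBAD plasmid library in pooled LB shake-flask culture, induced with 0.3% L-arabinose, DNA abundance read by NGS, three biological replicates, DESeq2 with apeglm shrinkage.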

Sequence | shrunken log2 fold change
RRIRQRPPRLPRPRPRPGLEPRP | 0.134
RRIRQRPPRLPRPRPRPGLPPRP | 0.242
RRIRQRPPRLPRPRPRPGMVPRP | 0.0259
RRIRQRPPRLPRPRPRPGNKPRP | -0.596
RRIRQRPPRLPRPRPRPGPPPRP | 0.462
RRIRQRPPRLPRPRPRPGQFPRP | 0.121
RRIRQRPPRLPRPRPRPGQKPRP | -0.00973
RRIRQRPPRLPRPRPRPGQQPRP | -0.0212
RRIRQRPPRLPRPRPRPGRGPRP | 0.333
RRIRQRPPRLPRPRPRPGTPPRP | 0.000485
RRIRQRPPRLPRPRPRPGTQPRP | -0.152
RRIRQRPPRLPRPRPRPGTSPRP | -0.523
RRIRQRPPRLPRPRPRPHAVPRP | -0.0835
RRIRQRPPRLPRPRPRPHDQPRP | 0.00277
RRIRQRPPRLPRPRPRPHELPRP | -0.00752
RRIRQRPPRLPRPRPRPHLMPRP | 0.106
RRIRQRPPRLPRPRPRPHMIPRP | -0.515
RRIRQRPPRLPRPRPRPHNGPRP | -0.072
RRIRQRPPRLPRPRPRPHNKPRP | -0.599
RRIRQRPPRLPRPRPRPHNRPRP | -0.372
RRIRQRPPRLPRPRPRPHNYPRP | -0.437
RRIRQRPPRLPRPRPRPHPHPRP | -0.136
RRIRQRPPRLPRPRPRPHPKPRP | -0.0646
RRIRQRPPRLPRPRPRPHPRPRP | 0.575
RRIRQRPPRLPRPRPRPHQLPRP | 0.142

Sequence | shrunken log2 fold change
RRIRQRPPRLPRPRPRPHQPPRP | 0.00524
RRIRQRPPRLPRPRPRPHRYPRP | -0.812
RRIRQRPPRLPRPRPRPHSFPRP | -0.00144
RRIRQRPPRLPRPRPRPHTIPRP | -0.412
RRIRQRPPRLPRPRPRPHVFPRP | -0.000919
RRIRQRPPRLPRPRPRPHVYPRP | -0.414
RRIRQRPPRLPRPRPRPHYFPRP | -0.239
RRIRQRPPRLPRPRPRPIACPRP | -0.238
RRIRQRPPRLPRPRPRPIAMPRP | -0.0149
RRIRQRPPRLPRPRPRPICFPRP | -0.0372
RRIRQRPPRLPRPRPRPICPPRP | 0.128
RRIRQRPPRLPRPRPRPICQPRP | -0.153
RRIRQRPPRLPRPRPRPIDDPRP | -0.112
RRIRQRPPRLPRPRPRPIDLPRP | -0.194
RRIRQRPPRLPRPRPRPIEMPRP | -0.0847
RRIRQRPPRLPRPRPRPIEVPRP | 0.0112
RRIRQRPPRLPRPRPRPIEYPRP | -0.0135
RRIRQRPPRLPRPRPRPIFEPRP | -0.224
RRIRQRPPRLPRPRPRPIFNPRP | -0.365
RRIRQRPPRLPRPRPRPIFQPRP | -0.269
RRIRQRPPRLPRPRPRPIFSPRP | 0.0638
RRIRQRPPRLPRPRPRPIGIPRP | -0.245
RRIRQRPPRLPRPRPRPIHAPRP | -0.0062
RRIRQRPPRLPRPRPRPIHGPRP | -0.0264
RRIRQRPPRLPRPRPRPIIHPRP | -0.054

Sequence | shrunken log2 fold change
RRIRQRPPRLPRPRPRPIIMPRP | -0.25
RRIRQRPPRLPRPRPRPIKDPRP | -0.034
RRIRQRPPRLPRPRPRPIKRPRP | -0.354
RRIRQRPPRLPRPRPRPIKSPRP | -0.117
RRIRQRPPRLPRPRPRPILKPRP | 0.14
RRIRQRPPRLPRPRPRPIMVPRP | -0.0523
RRIRQRPPRLPRPRPRPIMWPRP | 0.0394
RRIRQRPPRLPRPRPRPINTPRP | -0.129
RRIRQRPPRLPRPRPRPIQGPRP | -0.0863
RRIRQRPPRLPRPRPRPISEPRP | 0.0446
RRIRQRPPRLPRPRPRPISNPRP | -0.223
RRIRQRPPRLPRPRPRPITFPRP | -0.11
RRIRQRPPRLPRPRPRPIVQPRP | -0.0505
RRIRQRPPRLPRPRPRPIWHPRP | -0.204
RRIRQRPPRLPRPRPRPIYRPRP | -0.0223
RRIRQRPPRLPRPRPRPKDWPRP | 0.377
RRIRQRPPRLPRPRPRPKEDPRP | -0.0372
RRIRQRPPRLPRPRPRPKFIPRP | -0.0852
RRIRQRPPRLPRPRPRPKFWPRP | 0.104
RRIRQRPPRLPRPRPRPKGDPRP | 0.00911
RRIRQRPPRLPRPRPRPKGKPRP | -0.155
RRIRQRPPRLPRPRPRPKIPPRP | -0.0111
RRIRQRPPRLPRPRPRPKLEPRP | 0.563
RRIRQRPPRLPRPRPRPKLHPRP | -0.201
RRIRQRPPRLPRPRPRPKMTPRP | 0.00734

Sequence | shrunken log2 fold change
RRIRQRPPRLPRPRPRPKMYPRP | -0.544
RRIRQRPPRLPRPRPRPKNKPRP | -0.29
RRIRQRPPRLPRPRPRPKQCPRP | -0.288
RRIRQRPPRLPRPRPRPKRCPRP | 0.129
RRIRQRPPRLPRPRPRPKRPPRP | 0.135
RRIRQRPPRLPRPRPRPKSCPRP | 0.000945
RRIRQRPPRLPRPRPRPKSEPRP | -0.0211
RRIRQRPPRLPRPRPRPKSHPRP | -0.0261
RRIRQRPPRLPRPRPRPKSPPRP | -0.089
RRIRQRPPRLPRPRPRPKTRPRP | 0.247
RRIRQRPPRLPRPRPRPKWDPRP | -0.0672
RRIRQRPPRLPRPRPRPKYPPRP | 0.0386
RRIRQRPPRLPRPRPRPLAAPRP | 0.395
RRIRQRPPRLPRPRPRPLADPRP | 0.194
RRIRQRPPRLPRPRPRPLANPRP | -0.00739
RRIRQRPPRLPRPRPRPLAPPRP | 0.38
RRIRQRPPRLPRPRPRPLASPRP | 0.00224
RRIRQRPPRLPRPRPRPLCEPRP | -0.0868
RRIRQRPPRLPRPRPRPLCMPRP | -0.37
RRIRQRPPRLPRPRPRPLCSPRP | -0.0385
RRIRQRPPRLPRPRPRPLDKPRP | 2.19
RRIRQRPPRLPRPRPRPLEIPRP | -0.106
RRIRQRPPRLPRPRPRPLFTPRP | -0.426
RRIRQRPPRLPRPRPRPLGAPRP | 0.285
RRIRQRPPRLPRPRPRPLGIPRP | -0.381

Sequence | shrunken log2 fold change
RRIRQRPPRLPRPRPRPLHFPRP | -0.0222
RRIRQRPPRLPRPRPRPLITPRP | -0.281
RRIRQRPPRLPRPRPRPLKWPRP | 0.0646
RRIRQRPPRLPRPRPRPLNSPRP | -0.0233
RRIRQRPPRLPRPRPRPLQAPRP | 0.0365
RRIRQRPPRLPRPRPRPLRCPRP | 0.244
RRIRQRPPRLPRPRPRPLRVPRP | 0.298
RRIRQRPPRLPRPRPRPLTLPRP | -0.104
RRIRQRPPRLPRPRPRPLVQPRP | -0.361
RRIRQRPPRLPRPRPRPLWEPRP | 0.025
RRIRQRPPRLPRPRPRPLWPPRP | 0.227
RRIRQRPPRLPRPRPRPLYQPRP | -0.185
RRIRQRPPRLPRPRPRPMAFPRP | -0.0854
RRIRQRPPRLPRPRPRPMFHPRP | -0.815
RRIRQRPPRLPRPRPRPMGDPRP | 0.0563
RRIRQRPPRLPRPRPRPMGGPRP | 0.0922
RRIRQRPPRLPRPRPRPMGMPRP | 0.0187
RRIRQRPPRLPRPRPRPMGQPRP | 0.0628
RRIRQRPPRLPRPRPRPMHSPRP | -0.165
RRIRQRPPRLPRPRPRPMIPPRP | -0.0361
RRIRQRPPRLPRPRPRPMIRPRP | -0.0156
RRIRQRPPRLPRPRPRPMIWPRP | -0.79
RRIRQRPPRLPRPRPRPMKGPRP | 0.0391
RRIRQRPPRLPRPRPRPMKHPRP | -0.373
RRIRQRPPRLPRPRPRPMKYPRP | -0.498

Sequence | shrunken log2 fold change
RRIRQRPPRLPRPRPRPMLCPRP | -0.00319
RRIRQRPPRLPRPRPRPMLIPRP | -0.221
RRIRQRPPRLPRPRPRPMLMPRP | -0.0108
RRIRQRPPRLPRPRPRPMLRPRP | -0.138
RRIRQRPPRLPRPRPRPMMAPRP | 0.216
RRIRQRPPRLPRPRPRPMMHPRP | -0.252
RRIRQRPPRLPRPRPRPMMNPRP | -0.127
RRIRQRPPRLPRPRPRPMMVPRP | -0.0145
RRIRQRPPRLPRPRPRPMNCPRP | -0.0255
RRIRQRPPRLPRPRPRPMPLPRP | -0.00134
RRIRQRPPRLPRPRPRPMRWPRP | 0.0431
RRIRQRPPRLPRPRPRPMSDPRP | -0.0194
RRIRQRPPRLPRPRPRPMTCPRP | 0.0215
RRIRQRPPRLPRPRPRPMTKPRP | -0.0865
RRIRQRPPRLPRPRPRPMWHPRP | -0.18
RRIRQRPPRLPRPRPRPMYDPRP | -0.0385
RRIRQRPPRLPRPRPRPNAGPRP | 0.0853
RRIRQRPPRLPRPRPRPNAMPRP | -0.226
RRIRQRPPRLPRPRPRPNDKPRP | -0.335
RRIRQRPPRLPRPRPRPNFGPRP | -0.0871
RRIRQRPPRLPRPRPRPNFNPRP | -0.295
RRIRQRPPRLPRPRPRPNFPPRP | -0.00205
RRIRQRPPRLPRPRPRPNGKPRP | -0.362
RRIRQRPPRLPRPRPRPNIHPRP | -0.619
RRIRQRPPRLPRPRPRPNILPRP | -0.233
